Results reported in paper PMC3406077 (2012).
Residue numbers refer to the chain shown, from its start. In names and notes the source's numbering stands.

B1: wild-type full-length (C24-P237) pallilysin, O83732 H198A (protein)
chain: CFQHGHVPPRRIPPHDTFGALPTAALPSNARDTAAHPSDTADNTSGSSTTTDPRSHGNAPPAPVGGAAQTHTQPPVQTAMRIALWNRATHGEQGALQHLLAGLWIQTEISPNSGDIHPLLFFDREHAEITFSRASVQEIFLVDSAHTHRKTVSFLTRNTAISSIRRRLEVTFESAEVIHVRAVEDVARLKIGSTSMWDGQYTRYHAGPASAPSP
B2: wild-type full-length (C24-P237) pallilysin, O83732 E199A (protein)
chain: B1 chain with A175H, E176A
B3: wild-type full-length (C24-P237) pallilysin, O83732 H202A (protein)
chain: B1 chain with A175H, H179A

Target: laminin isolated from Engelbreth-Holm-Swarm murine sarcoma basement membrane
Experiment: ELISA
Conditions: chain shown with the change; 20 µg protein per well; laminin 0.5 µg per well; parent: est. 3.1; read off a plot

In order of falling response (O.D. (492 nm)):
1. B2  3.3
2. B1  3.1
3. B3  3
